Data as given in US20090118165A1 (CASE WESTERN RESERVE UNIVERSITY, published 2009).
Where no end group is shown, it is not given here. The star is where a group is joined. Biotin = O=C1N[C@H]2[C@H](CS[C@H]2CCCCC(=O)*)N1

Target: T1, Bax (endogenous, in lysate of human Dami megakaryocytic cells) (human, UniProt Q07812 1-192, limits assumed)
T1 construct: Endogenous protein in a cell lysate
Assay: pull-down of biotin-labeled peptide with streptavidin beads from Dami cell lysate, Western blot with anti-Bax antibody
Method: FIG. 1 illustrates Western Blots of Dami cell lysates incubated in the absence or presence of 200 μM biotin-labeled peptides. The peptides were: KLPVM (SEQ ID NO:8) (scrambled negative control), VPMLK (SEQ ID NO:2) (human version), VPTLK (SEQ ID NO:5) (mouse version), and VPALR (SEQ ID NO:6) (rat version). Immuno-precipitation was performed with streptavidin beads. Western blot analysis of immune precipitated samples were performed with anti-Bax polyclonal antibody.
Co-precipitation was performed as previously described (Yoshida, T., et al., Bax-inhibiting peptide derived from mouse and rat Ku70. Biochem Biophys Res Commun, 2004. 321(4): p. 961-6). […] After the precleaning of 200 μl of sample with 20 μl of streptavidin beads (Amersham-Pharmacia Biotech) at 4° C. for 1 h, the samples were incubated with 200 μM of various biotin-labeled peptides (biotin-KLPVM (SEQ ID NO:8), VPMLK (SEQ ID NO:2), VPTLK (SEQ ID NO:5) or VPALR (SEQ ID NO:6) for 2 h. Streptavidin beads (20 μl) were added to the samples and the mixtures were incubated at 4° C. After 2 h of incubation, the beads were washed with 100 μl of Chaps buffer 3 times by centrifugation (1000 rpm, at 4° C., 15 sec). The beads were boiled in 40 μl of Laemmli buffer and the eluted proteins (20 μl) were analyzed by Western blotting with anti-human Bax polyclonal antibody (BD-Pharmingen). […]

T1 sequence (Q07812 whole entry): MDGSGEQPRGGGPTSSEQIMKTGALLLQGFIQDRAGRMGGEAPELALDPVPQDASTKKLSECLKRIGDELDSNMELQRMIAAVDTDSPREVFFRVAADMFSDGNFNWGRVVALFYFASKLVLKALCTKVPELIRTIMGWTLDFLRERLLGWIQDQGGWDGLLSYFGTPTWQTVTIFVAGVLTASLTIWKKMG

- binding result: no binding (tested: 200 µM)
B1: biotin-KLPVM (SEQ ID NO:8), scrambled negative control peptide (peptide)
peptide: Biotin-KLPVM
notes: Synthetic scrambled control peptide, biotin-labeled, used at 200 uM in Dami cell lysate
